Results taken from patent US20230295310A1 (ABCELLERA BIOLOGICS, published 2023).

Assays:
human CD3e/g = molecular target: T1, human CD3e/g (human, UniProt P07766 23-126; P09693 23-116); test: SPR (Carterra LSA), mAb on chip
T1 construct: Bought soluble protein; also called hCD3e/g; human CD3e/g (Acro CDD-C52W4)
Procedure, shortened: (§1)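 Purified mAbs amine-coupled (EDC/S-NHS) at 10 μg/mL in 10 mM NaOAc pH 4.25 onto an HC-30M chip, with benchmark and negative-control mAbs; analyte flowed over the array. Double-referenced sensorgrams fitted globally to a 1:1 Langmuir model for ka, kd and KD.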

human CD3e/d = molecular target: T2, human CD3e/d (human, UniProt P07766 23-126; P04234 22-105); test: SPR (Carterra LSA), mAb on chip
T2 construct: Bought soluble protein; also called hCD3e/d; human CD3/ed (Sino CT038-H2508H)
Procedure, shortened: as §1

T2 sequence (P07766 23-126, chain 1 of 2): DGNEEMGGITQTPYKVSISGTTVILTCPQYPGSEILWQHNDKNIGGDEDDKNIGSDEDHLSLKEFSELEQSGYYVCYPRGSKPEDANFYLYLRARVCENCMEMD
T2 sequence (P04234 22-105, chain 2 of 2): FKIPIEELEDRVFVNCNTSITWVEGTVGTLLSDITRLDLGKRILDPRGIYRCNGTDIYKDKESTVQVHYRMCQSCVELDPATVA
T1 sequence (P07766 23-126, chain 1 of 2): as the sequence (P07766 23-126, chain 1 of 2) above
T1 sequence (P09693 23-116, chain 2 of 2): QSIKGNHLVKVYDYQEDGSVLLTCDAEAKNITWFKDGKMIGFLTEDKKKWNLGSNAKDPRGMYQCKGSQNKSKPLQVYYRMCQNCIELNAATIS

Binder | Kd (human CD3e/g) [nM] | Kd (human CD3e/d) [nM]
mAb 210 (antibody, V domains shown, VH and VL only) VH: QVQLVESGGGVVQPGRSLRLSCAASGFTFSGYGMHWVRQAPGKGLEWLAIIYYNGNNRKYADSVKGRFTISRDNSKNTVSLQMNSLRVEDTAMYYCTRGDGYNWFVTWGQGTLVTVSS VL: EIVMTQSPATLSVSPGERAALSCRASQSVTSNLAWYHQKPGQAPRLLIYGASTRATGIPVRFSGSGSGTEFTLTISSLQSEDFAVYYCQQYNNWPLTFGGGTKVENK | 59 | 120
mAb 194 (antibody, V domains shown, VH and VL only) VH: QEQLVESGGGVVQPGGSLRLSCAASGFIFSGYGMHWVRQAPGKGLEWVAIIWYNGRKTYYAESVKGRFTISRDNSKNTLSLQMNSLRVEDTAVYYCTAGQGYNWFDPWGQGTLVTVSS VL: EIVMTQSPATLSVSPGERATLSCRASQSVSSNLAWYQQKPGQAPRLLIYGASTRATGIPARFSGSGSGTEFTLTISSLQSEDFAVYYCQQFNAWPLTFGGGTKMEIK | 12 | 19
mAb 225 (antibody, V domains shown, VH and VL only) VH: QEQLVESGGGVVQPGGSLRLSCAASGFKFSGYGMHWVRQAPGKGLEWVAIIWYNGRKTYYAESVKGRFTISRDNSKNTLSLQMNRLRVEDTAVYYCTAGQGYNWFDPWGQGTLVTVSS VL: EIVMTQSPATLSVSPGERATLSCRASQSVSSNLAWYQQKPGQAPRLLIYGASTRATGIPARFSGSGSGTEFTLTISSLQSEDFAVYYCQQFNAWPLTFGGGTKMEIK | 6.2 | 11
mAb 213 (antibody, V domains shown, VH and VL only) VH: QEQLVESGGGVVQPGGSLRLSCAASGFTFSGYGMHWVRQAPGKGLEWVAIIWYNGRKTYYAESVKGRFTISRDNSKNTLSLQMNSLRVEDTAVYYCTTGKGYNWFDPWGQGTLVTVSS VL: EIVMTQSPATLSVSPGERATLSCRASQSVSSNLAWYQQKPGQAPRLLIYGASTRATGIPARFSGSGSGTEFTLTISSLQSEDFAVYYCQQFNAWPLTFGGGTKMEIK | 8.6 | 13
mAb 219 (antibody, V domains shown, VH and VL only) VH: QEQLVESGGGVVQPGGSLRLSCAASGFMFSGYGMHWVRQAPGKGLEWVAIIWYNGRKTYYTESVKGRFTISRDNSKNTLSLQMNSLRVEDTAVYYCTAGQGYNWFDPWGQGTLVTVSS VL: EIVMTQSPATLSVSPGERATLSCRASQSVSSNLAWYQQKPGQAPRLLIYGASTRATGIPARFSGSGSGTEFTLTISSLQSEDFAVYYCQQFNAWPLTFGGGTKMEIK | 6.3 | 10
mAb 220 (antibody, V domains shown, VH and VL only) VH: QEQLVESGGGVVQPGGSLRLSCVASGFTFSGYGMHWVRQAPGKGLEWVAIIWYNGRKTYYAESVKGRFTISRDNSKNTLSLQMNSLRVEDTAVYYCTTGKGYNWFDPWGQGTLVTVSS VL: EIVMTQSPATLSVSPGERATLSCRASQSVSSNLAWYQQKPGQAPRLLIYGASTRATGIPARFSGSGSGTEFTLTISSLQSEDFAVYYCQQFNAWPLTFGGGTKMEIK | 11 | 16
mAb 195 (antibody, V domains shown, VH and VL only) VH: QEQLVESGGGVVQSGRSLRLSCVASGFKFSGYGMHWVRQAPGKGLEWVAIIYYDGKNKYYADSVKGRFTISRDNSKNTLYLQMNSLRAEDTAVYYCTRGAGYNWFDSWGQGTLVTVSS VL: EIVMTQSPATLSVSPGERATLSCRASQSVRNNLAWYQQKPGQAPRLLIYGVSTRATAFPARFSGSGSGTEFTLTISSLQSEDFAVYYCQQYNNWPLTFGGGTKVEIK | 7.1 | 11
mAb 218 (antibody, V domains shown, VH and VL only) VH: QVQLVESGGGVVQPGRSLRLSCAASGFTFSGYGMHWVRQAPGKGLEWVAIIYYNGNNRKYADSVRGRFTISRDNSKNTVSLQMNSLRVEDTAIYYCTRGDGYNWFVTWGQGTLVTVSS VL: EIVMTQSPATLSVSPGERATLSCRASQSVSSNLAWYYQKPGQAPRLLIYGASTRATGIPVRFSGSGSGTEFTLTISSLQSEDFAVYYCQQYNNWPLTFGGGTKVEIK | 34 | 62
mAb 196 (antibody, V domains shown, VH and VL only) VH: QEQLVESGGGVVQSGRSLRLSCVASGFKFSGYGMHWVRQAPGKGLEWVAIIYYDGKNKYYADSVKGRFTVSRDNSKNTLYLQMNSLRAEDTAVYYCTRGAGYNWFDSWGQGTLVTVSS VL: EIVMTQSPATLSVSPGERATLSCRASQSVRNNLAWYQQKPGQAPRLLIYGVSTRATAFPARFSGSGSGTEFTLTISSLQSEDFAVYYCQQYNNWPLTFGGGTKVEIK | 9.1 | 6.9
mAb 226 (antibody, V domains shown, VH and VL only) VH: QVQLVESGGGVVQPGRSLRLSCAASGFTFSGYGMHWVRQAPGKGLEWVAIIYYNGNNRKYADSVKGRFTISRDNSKNTVSLQMNSLRVEDTAIYYCTRGDGYNWFVTWGQGTLVTVSS VL: EIVMTQSPATLSVSPGERATLSCRASQSISSNLAWYHQKPGQAPRLLIYGASTRATGIPVRFSGSGSGTEFTLTISSLQSEDFALYYCQQYNNWPLTFGGGTKVEIK | 32 | 75
mAb 215 (antibody, V domains shown, VH and VL only) VH: QVQLVESGGGVVQPGRSLRLSCAATGFTFSGYGMHWVRQAPGKGLEWVAIIYYNGNNRKYADSVKGRFTISRDNSKNTVSLQMNSLRVEDTAIYYCTRGDGYNWFVTWGQGTLVTVSS VL: EIVMTQSPATLSVSPGERATLSCRASQSVSSNLAWYRQKPGQAPRLLIYGASTRATGIPVRFSGSGSGTEFTLTISSLQSEDFAVYYCQQYNNWPLTFGGGTKVEIK | 34 | 76
mAb 65 (antibody, V domains shown, VH and VL only) VH: QVQLVESGGGVVQPGRSLRLSCAASGFTFSGYGMHWVRQAPGKGLDWVAIIYYNGNNKYYADSVKGRFTISRDNSKNTLYLQMNSLRAEDTAVYYCARGGGYNWFDPWGQGTLVIVSS VL: not shown | 101 | 128
mAb 86 (antibody, V domains shown, VH and VL only) VH: QVQLAESGGGVVQPGRSLRLSCEASGFTFSGYGMHWVRQAPGKGLDWVAIIYYDGKNKYYADSVKGRFTISRDNSKNTLYLQMNSLRAEDTAVYYCARGGGYNWFDPWGQGTLVTVSS VL: DIQMTQSPSSLSASVGDRVTITCRPSQTISKYLNWYQQKPGKAPKLLIYAASSLQSGVPSRFSGSGSGTDFTLTISSLQPEDFATYYCQQSYITPITFGRGTRLEIK | 91.9 | 82.1
mAb 81 (antibody, V domains shown, VH and VL only) VH: QVQLAESGGGVVQPGRSLRLSCAASGFTFSGYGMHWVRQAPGKGLDWVAIIYYDGKNKYYADSVKGRFTISRDNSKNTLYLQMNSLRAEDTAVYYCARGGGYNWFDPWGQGTLVTVSS VL: DIQMTQSPSSLSASVGDRVTITCRPSQTISNYLNWYQQDPGKAPKLLIYAASSLQSGVPSRFSGSGSGTDFTLTISSLQPEDFATYYCQQSYSTPITFGRGTRLEIK | 69.6 | 101
mAb 83 (antibody, V domains shown, VH and VL only) VH: QVQLVESGGGVVQPGRSLRLSCAASGFTFSGYGMHWVRQAPGKGLDWVAIIYYNGNNKYYADSVKGRFTISRDNSKNTLYLQMNSLRAEDTAVYYCARGGGYNWFDPWGQGTLVIVSS VL: DIQMTQSPSSLSASVGDRVTITCRPSQIIINYLNWYQQKPGKAPKLLIYAASSLQSGVPSRFSGSGSGTDFTLTISSLQPEDFATYYCQQSYSTPFTFGRGTRLEIK | 53.4 | 86.5
mAb 212 (antibody, V domains shown, VH and VL only) VH: EVQLLESGGGLVQPGGSLRLSCAASGFTFSNYAMNWVRQAPGKGLEWVSAISGSRSNTYYADSVKGRFTISRDNSKNTLYLQMNSLRAEDTGVYYCAKGAYSKYPYYYYMDVWGKGTTVTVSS VL: EIVMTQSPATLSLSPGERATLSCRASQSVSSSYLSWYQQKPGQAPRLLIYGASTRAIGIPARFSGSGSGTDFTLTISSLQAEDFAVYYCQQDDNLPWTFGQGTKVEIK | 22 | 11
mAb 214 (antibody, V domains shown, VH and VL only) VH: EVQLLESGGGLVQPGGSLRLSCAASGFTFSNYAMNWVRQAPGKGLEWVSAISGSRSNTYYADSVKGRFTISRDNSKNTLYLQMNSLRAEDTAVYYCAKGAYSKYPYYYYMDVWGKGTTVTVSS VL: EIVMTQSPATLSLSPGERATLSCRASQSVSSSYLSWYQQKPGQAPRLLIYGASTRAIGIPARFSGSGSGTDFTLTISSLQAEDFAVYYCQQDDNLPWTFGQGTKVEIK | 25 | 13
mAb 85 (antibody, V domains shown, VH and VL only) VH: QVQLVQSGAEVKKPGASVKVSCKASGYTVTGYYMHWVRQAPGQGLEWMGWINPNSGGTNFAQNFQGRVTMTRDTSISTFYMDLNRLRSDDTAVYYCARGGAPVSYWFFDLWGRGTLVTVSS VL: DIQMTQSPSSLSASVGDRVTITCRASQSISRYLNWYQQKPGKAPKVLIYNTSSLKSGVPSRFSGSGSGTDFTLTISSLQPEDFGTFYCQQSHSTPFTFGPGTKVDIK | 102 | 117
mAb 66 (antibody, V domains shown, VH and VL only) VH: QVQLVQSGAEVKKPGASVKVSCKASGYTVTGYYMHWVRQAPGQGLEWMGWINPNSGGTNFAQNFQGRVTMTRDTSISTFYMDLSRLRSDDTAVYYCARGGAPVSYWFFDLWGRGTLVTVSS VL: DIQMTQSPSSLSASVGDRVTITCRASQSISRYLNWYQQKPGKAPKVLIYNTSSLKSGVPSRFSGSGSGTDFTLTISSLQPEDFATLYCQQSHSTPFTFGPGTKVDIK | 125 | 149
mAb 79 (antibody, V domains shown, VH and VL only) VH: QVQLVQSGAEVKKPGASVKVSCKASGYIVTGYYMHWVRQAPGHGLEWMGWINPNSGGTNFAQNFQGRVTMTRDTSISTFYMDLNRLTSDDTAVYYCARGGAPVSYWFFDLWGRGTLVTVSS VL: DIQMTQSPSSLSASVGDRVTITCRASQNINSYLNWYHQKPGKAPKVLIYNTSTLKSGVPSRFSGSGSGTYFTLTISSLQPEDFATFYCQQSHSTPFTFGPGTKVDIK | 74.8 | 124
